From patent publication US20250115669A1, “FGFR1/KLB Targeting Agonistic Antigen-Binding Proteins and Conjugates Thereof with GLP-1R Agonistic Peptides” (SANOFI, priority 2020, published 2025)

Tests used:
[1] = biological target: T1, FGFR1c and co-receptor beta-Klotho (KLB) (Homo sapiens, UniProt P11362+Q86Z14); test: Luciferase reporter gene assay (iLite FGF21 Assay Ready Cells), FGF21-like signaling; format: cell-based
T1 construct: host or cells: iLite FGF21 Assay Ready Cells (HEK293)

[2] = biological target: cynomolgus monkey beta-Klotho; test: SPR binding affinity and kinetics to cynomolgus monkey beta-Klotho (Biacore 8K, anti-human Fc capture); design: species or system Cynomolgus monkey (Macaca fascicularis); conditions: 1:1 binding model, read-out: KD monkey KLB
Protocol: Binding affinity and kinetics were measured on a Biacore 8K instrument (GE Healthcare). For the affinity capture of the diluted mAb sample, an anti-human Fc antibody (human antibody capture kit, GE Healthcare) was immobilized on all eight channels of a series S CM5 sensor chip (GE Healthcare) to approximately 10.000 RU. The anti-beta-Klotho antibodies were diluted into HBS-EP+ assay buffer (GE Healthcare) to 0.04 μg/mL. The antibodies were injected in the sample compartment, whereas the reference compartment was used without captured antibody. […] For the antigen inject the flow rate was adjusted to 60 μL/min with an association time of 180 sec and a dissociation time of 1800 sec. The maximum binding signal of beta-Klotho was in the range of 30 RU. At the end of each cycle an inject of regeneration solution, supplied with human antibody capture kit (GE Healthcare), supplemented with 10% non-specific binding reducer (GE Healthcare), for 1 min at 30 μL/min to remove antibody and antigen was performed. Binding kinetics data were evaluated with a 1:1 binding model using the Biacore 8K Evaluation Software version 1.1.1.7442 (GE Healthcare).
For interaction analysis with human beta-klotho, mAbs were captured via an anti-human Fc antibody immobilized on a series S CM5 sensor chip (human antibody capture kit, GE Healthcare). […] Binding kinetics data were evaluated with a 1:1 binding model using the Biacore 8K Evaluation Software version 1.1.1.7442 (GE Healthcare). For interaction analysis with Cynomolgus monkey beta-klotho, mAbs were captured via an anti-human Fc antibody immobilized on a series S CM5 sensor chip (human antibody capture kit, GE Healthcare). […] Binding kinetics data were evaluated with a 1:1 binding model using the Biacore 8K Evaluation Software version 1.1.1.7442 (GE Healthcare). Exemplary sensorgrams for the interaction are shown in FIG. 7 (human KLB) and 8 (monkey KLB), as well as in Table G.

[3] = Nano differential scanning fluorimetry (nanoDSF), Tonset and Tm; format: physicochemical
Protocol: Onset temperatures (Tonset) and melting points (Tm) of protein denaturation were determined using nano differential scanning fluorimetry (nanoDSF). Samples were diluted in formulation buffer to a final concentration of 0.5 mg/mL and loaded into nanoDSF capillaries in duplicates (Nanotemper Technologies). All measurements were done using a Prometheus NT.plex nanoDSF device (Nanotemper Technologies). Heating rate was 1° C. per minute from 20° C. to 95° C. Data were recorded using PR.ThermControl Software v2.3.1 (Nanotemper Technologies) and analyzed using PR.Stability Analysis Software v1.0.3 (Nanotemper Technologies).

[4] = In vivo PK in cynomolgus monkeys, single intravenous dose; design: species or system Cynomolgus monkey (Macaca fascicularis); conditions: Macaca fascicularis, plasma
Protocol: Naive cynomolgus monkeys received a single intravenous dose of mAb according to the following table:
In all investigations, the animals were evaluated twice daily for post-dose mortality/moribundity and cage side clinical observations were carried out after each study blood collection time. Studies were Non-GLP, nevertheless, these studies have been conducted in a GLP compliant facility using practices detailed in Standard Operating Procedures consistent with the principles of GLP (Test facility: Sanofi and Charles River Laboratories). Plasma concentrations and pharmacokinetic parameters of the tested antibodies were investigated after single intravenous administration.

T1 sequence (Q86Z14 53-1044 limits assumed): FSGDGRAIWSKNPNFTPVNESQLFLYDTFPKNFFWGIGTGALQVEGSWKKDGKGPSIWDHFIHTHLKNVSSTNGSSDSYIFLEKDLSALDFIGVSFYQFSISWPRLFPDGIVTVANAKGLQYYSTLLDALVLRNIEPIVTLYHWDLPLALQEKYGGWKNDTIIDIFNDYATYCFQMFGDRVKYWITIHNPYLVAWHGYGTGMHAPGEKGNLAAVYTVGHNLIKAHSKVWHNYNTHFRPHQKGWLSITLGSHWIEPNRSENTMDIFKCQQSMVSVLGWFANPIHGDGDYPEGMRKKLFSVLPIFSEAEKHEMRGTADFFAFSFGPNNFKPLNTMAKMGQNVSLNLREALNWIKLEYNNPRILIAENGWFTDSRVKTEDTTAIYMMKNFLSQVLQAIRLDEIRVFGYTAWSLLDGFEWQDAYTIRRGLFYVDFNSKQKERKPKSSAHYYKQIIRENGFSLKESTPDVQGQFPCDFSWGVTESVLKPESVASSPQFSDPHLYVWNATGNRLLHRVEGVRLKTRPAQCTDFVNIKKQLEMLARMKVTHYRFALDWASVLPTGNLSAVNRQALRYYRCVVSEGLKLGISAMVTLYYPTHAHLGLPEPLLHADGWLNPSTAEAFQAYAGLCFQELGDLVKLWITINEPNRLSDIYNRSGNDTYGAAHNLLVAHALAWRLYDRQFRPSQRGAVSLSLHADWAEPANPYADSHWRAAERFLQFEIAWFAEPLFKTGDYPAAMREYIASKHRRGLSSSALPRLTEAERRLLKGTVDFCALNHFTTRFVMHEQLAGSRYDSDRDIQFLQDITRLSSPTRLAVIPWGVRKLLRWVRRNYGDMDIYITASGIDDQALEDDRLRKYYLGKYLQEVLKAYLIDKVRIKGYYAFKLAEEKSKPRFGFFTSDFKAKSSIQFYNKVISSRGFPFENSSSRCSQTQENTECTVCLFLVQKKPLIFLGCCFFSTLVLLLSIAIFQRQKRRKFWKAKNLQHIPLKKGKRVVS
T1 sequence (P11362 22-820 isoform P11362-2 limits assumed): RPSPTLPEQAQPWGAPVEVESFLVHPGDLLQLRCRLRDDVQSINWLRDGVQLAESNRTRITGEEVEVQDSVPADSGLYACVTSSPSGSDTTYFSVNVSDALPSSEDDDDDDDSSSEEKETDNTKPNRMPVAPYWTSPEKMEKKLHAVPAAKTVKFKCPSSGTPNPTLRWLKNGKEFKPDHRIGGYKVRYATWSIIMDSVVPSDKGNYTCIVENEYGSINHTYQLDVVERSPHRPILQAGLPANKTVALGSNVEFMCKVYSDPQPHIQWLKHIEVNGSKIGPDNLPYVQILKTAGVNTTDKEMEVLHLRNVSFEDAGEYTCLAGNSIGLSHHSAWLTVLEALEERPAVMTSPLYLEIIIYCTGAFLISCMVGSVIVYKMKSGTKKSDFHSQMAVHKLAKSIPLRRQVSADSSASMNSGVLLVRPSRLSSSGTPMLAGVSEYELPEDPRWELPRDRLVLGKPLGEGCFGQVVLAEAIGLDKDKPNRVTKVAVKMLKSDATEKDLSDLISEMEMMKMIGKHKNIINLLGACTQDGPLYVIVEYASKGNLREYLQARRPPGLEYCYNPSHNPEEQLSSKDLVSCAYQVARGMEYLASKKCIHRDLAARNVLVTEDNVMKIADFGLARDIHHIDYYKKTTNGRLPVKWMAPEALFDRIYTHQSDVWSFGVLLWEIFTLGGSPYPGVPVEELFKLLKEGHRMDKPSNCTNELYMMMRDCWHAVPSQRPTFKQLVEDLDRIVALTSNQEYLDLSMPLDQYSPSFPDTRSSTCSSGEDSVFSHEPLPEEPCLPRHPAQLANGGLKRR

| Substance | cellular activity in the Luciferase gene reporter assay compared to 16H7 [1] | Kd [2] | Thermal stability DSF Tm [3] | Thermal stability DSF Tonset [3] | DSF Tm ([3]; pH 5, 40° C., d 21) | DSF Tonset ([3]; pH 5, 40° C., d 21) | DSF Tm ([3]; pH 5, d 0) | DSF Tonset ([3]; pH 5, d 0) | DSF Tm ([3]; pH 6, 40° C., d 21) | DSF Tonset ([3]; pH 6, 40° C., d 21) | DSF Tm ([3]; pH 6, d 0) | DSF Tonset ([3]; pH 6, d 0) | DSF Tm ([3]; pH 8, 40° C., d 21) | DSF Tonset ([3]; pH 8, 40° C., d 21) | DSF Tm ([3]; pH 8, d 0) | DSF Tonset ([3]; pH 8, d 0) | t½ ([4]; 3.0 mg/kg single IV) | also measured |
| --- | --- | --- | --- | --- | --- | --- | --- | --- | --- | --- | --- | --- | --- | --- | --- | --- | --- | --- |
| Ab0351: IgG4 PE; 16H7 VL (N25S, D49E, D50E, D91E, N93E); 16H7 VH (M34V, I83T, D109E); HC SEQ ID NO: 40, LC SEQ ID NO: 47 | comparable cellular activity |  | 62 °C | 53 °C | 61 °C | 45 °C | 61 °C | 50 °C | 62 °C | 52 °C | 62 °C | 53 °C | 66 °C | 57 °C | 66 °C | 58 °C |  |  |
| Ab0331: IgG4 PE; 16H7 VL (N25S, D49S, D50E, D91E, N93E); 16H7 VH (M34V, I83T, D109E); HC SEQ ID NO: 38, LC SEQ ID NO: 45 | comparable cellular activity | 3.49 nM | 63 °C | 53 °C | 61 °C | 44 °C | 61 °C | 54 °C | 62 °C | 50 °C | 63 °C | 53 °C | 67 °C | 57 °C | 68 °C | 58 °C | 259 h |  |
| Ab0430: IgG1 NNAS; 16H7 VL (N25S, D49E, D50E, D91E, N93E); 16H7 VH (M34V, I83T, D109E); HC SEQ ID NO: 43, LC SEQ ID NO: 50 |  | 2.96 nM | 62 °C | 45 °C | 62 °C | 46 °C | 62 °C | 45 °C | 62 °C | 46 °C | 62 °C | 45 °C | 66 °C | 56 °C | 66 °C | 56 °C |  |  |

Second part, led by results:

| cellular activity in the Luciferase gene reporter assay compared to 16H7 [1] | Kd [2] | Substance | Thermal stability DSF Tm [3] | Thermal stability DSF Tonset [3] | DSF Tm ([3]; pH 5, 40° C., d 21) | DSF Tonset ([3]; pH 5, 40° C., d 21) | DSF Tm ([3]; pH 5, d 0) | DSF Tonset ([3]; pH 5, d 0) | DSF Tm ([3]; pH 6, 40° C., d 21) | DSF Tonset ([3]; pH 6, 40° C., d 21) | DSF Tm ([3]; pH 6, d 0) | DSF Tonset ([3]; pH 6, d 0) | DSF Tm ([3]; pH 8, 40° C., d 21) | DSF Tonset ([3]; pH 8, 40° C., d 21) | DSF Tm ([3]; pH 8, d 0) | DSF Tonset ([3]; pH 8, d 0) | t½ ([4]; 3.0 mg/kg single IV) | also measured |
| --- | --- | --- | --- | --- | --- | --- | --- | --- | --- | --- | --- | --- | --- | --- | --- | --- | --- | --- |
| comparable cellular activity | 2.95 nM | Ab0335: IgG4 PE; 16H7 VL (N25S, D49S, D50A, D91E, N93E); 16H7 VH (M34V, I83T, D109E); HC SEQ ID NO: 39, LC SEQ ID NO: 46 | 63 °C | 52 °C | 62 °C | 45 °C | 61 °C | 51 °C | 62 °C | 50 °C | 63 °C | 52 °C | 68 °C | 57 °C | 68 °C | 57 °C | 306 h |  |
|  | 2.2 nM | Ab0429: IgG1 NNAS; 16H7 VL (N25S, D49S, D50A, D91E, N93E); 16H7 VH (M34V, I83T, D109E); HC SEQ ID NO: 42, LC SEQ ID NO: 49 | 62 °C | 50 °C | 60 °C | 51 °C | 58 °C | 51 °C | 62 °C | 48 °C | 62 °C | 50 °C | 69 °C | 55 °C | 63 °C | 53 °C | 183 h |  |
|  | 0.428 nM | 16H7: anti FGFR1c/KLB monoclonal antibody of WO 2011/071783, IgG2 backbone; HC SEQ ID NO: 1, LC SEQ ID NO: 2 [Ab 16H7] |  |  |  |  |  |  |  |  |  |  |  |  |  |  |  | FGF21-like activity in Luciferase gene reporter assay (in words) ([1]; monovalent Fab versus bivalent antibody): shows FGF21-like activity; t½ ([4]; 0.1 mg/kg single IV): 145 h; t½ ([4]; 0.3 mg/kg single IV): 151 h; t½ ([4]; 1.0 mg/kg single IV): 269 h |
|  | 2.54 nM | Ab0428: IgG1 NNAS; 16H7 VL (N25S, D49S, D50E, D91E, N93E); 16H7 VH (M34V, I83T, D109E); HC SEQ ID NO: 41, LC SEQ ID NO: 48 | 62 °C | 48 °C | 59 °C | 51 °C | 59 °C | 50 °C | 62 °C | 47 °C | 62 °C | 48 °C | 67 °C | 56 °C | 68 °C | 54 °C |  |  |
